Data from the supplement of paper PMC11246515.
± gives the standard deviation of the averaged measurements.

Assay: total protein half-life in vivo (active degradation + dilution); higher = more stable protein
[1] = E. coli NCM3722 delta-clpP delta-lon delta-hslV, growth: N-lim chemostat, doubling time 6 h
[2] = E. coli NCM3722 delta-hslV, growth: N-lim chemostat, doubling time 6 h
[3] = E. coli NCM3722 delta-lon, growth: N-lim chemostat, doubling time 6 h
[4] = E. coli NCM3722 delta-smpB, growth: N-lim chemostat, doubling time 6 h
[5] = wild type E. coli NCM3722, growth: C-lim chemostat, doubling time 3 h
[6] = wild type E. coli NCM3722, growth: C-lim chemostat, doubling time 6 h
[7] = wild type E. coli NCM3722, growth: C-lim chemostat, doubling time 12 h
[8] = wild type E. coli NCM3722, growth: N-lim chemostat, doubling time 6 h
[9] = wild type E. coli NCM3722, growth: N-lim chemostat, doubling time 12 h
[10] = wild type E. coli NCM3722, growth: P-lim chemostat, doubling time 6 h
[11] = wild type E. coli NCM3722, growth: P-lim chemostat, doubling time 12 h
[12] = E. coli NCM3722 delta-clpP, growth: N-lim chemostat, doubling time 6 h

Row | Sequence | total protein half-life in vivo [1] | total protein half-life in vivo [2] | total protein half-life in vivo [3] | total protein half-life in vivo [4] | total protein half-life in vivo [5] | total protein half-life in vivo [6] | total protein half-life in vivo [7] | total protein half-life in vivo [8] | total protein half-life in vivo [9] | total protein half-life in vivo [10] | total protein half-life in vivo [11] | total protein half-life in vivo [12]
1 | MNKSQLIDKIAAGADISKAAAGRALDAIIASVTESLKEGDDVALVGFGTFAVKERAARTGRNPQTGKEITIAAAKVPSFRAGKALKDAVN [P0ACF4] | 7.01 ± 0.69 h | 5.94 ± 0.61 h | 6.96 ± 0.96 h | 5.51 ± 0.24 h | 2.88 ± 0.054 h | 5.1 ± 0.35 h | 7.44 ± 0.28 h | 5.035 ± 0.04 h | 10.813 ± 0.0038 h | 4.6 ± 0.72 h | 10.8 ± 0.92 h | 
2 | MSLPMLQVALDNQTMDSAYETTRLIAEEVDIIEVGTILCVGEGVRAVRDLKALYPHKIVLADAKIADAGKILSRMCFEANADWVTVICCADINTAKGALDVAKEFNGDVQIELTGYWTWEQAQQWRDAGIGQVVYHRSRDAQAAGVAWGEADITAIKRLSDMGFKVTVTGGLALEDLPLFKGIPIHVFIAGRSIRDAASPVEAARQFKRSIAELWG | 5.41 h | 2.68 h |  | 4.15 ± 2.2 h | 2.29 ± 0.076 h | 5.11 ± 1.5 h | 5.84 ± 1.4 h |  |  | 2.69 h | 3.39 h | 2.49 h
3 | MLAISSNLSKMIIFIFAIIIIVVLCVITYLYLYKDESLVSKHYINYMAIPENDGVFTWLPDFFPHVAVDISIYTNVEDDYFFLIFP | 3.41 h | 5.43 h |  |  |  |  |  |  |  |  |  | 
4 | MSYPLFDKDEHWHKPEQAFLTDDHRTILRFAVEALMSGKGAVLVTLVEIRGGAARPLGAQMVVREDGRYCGFVSGGCVEAAAAFEALEMMGSGRDREIRYGEGSPWFDIVLPCGGGITLTLHKLRSAQPLLAVLNRLEQRKPVGLRYDPQAQSLVCLPTQTRTGWNLNGFEVGFRPCVRLMIYGRSLEAQATASLAAATGYDSHIFDLFPASASAQIDTDTAVILLCHDLNRELPVLQAAREAKPFYLGALGSYRTHTLRLQKLHELGWSREETTQIRAPVGIFPKARDAHTLALSVLAEVASVRLHQEEDSCLPPSS | 5.9 ± 0.33 h |  |  |  |  |  |  |  |  |  |  | 
5 | MFIGFDYGTANCSVAVMRDGKPHLLKMENDSTLLPSMLCAPTREAVSEWLYRHHDVPADDDETQALLRRAIRYNREEDIDVTAKSVQFGLSSLAQYIDDPEEVWFVKSPKSFLGASGLKPQQVALFEDLVCAMMLHIRQQAQAQLPEAITQAVIGRPINFQGLGGDEANTQAQGILERAAKRAGFRDVVFQYEPVAAGLDYEATLQEEKRVLVVDIGGGTTDCSLLLMGPQWRSRLDREASLLGHSGCRIGGNDLDIALAFKNLMPLLGMGGETEKGIALPILPWWNAVAINDVPAQSDFYSSANGRLLNDLVRDAREPEKVALLQKVWRQRLSYRLVRSAEECKIALSSVAETRASLPFISNELATLISQRGLESALSQPLTRILEQVQLALDNAQEKPDVIYLTGGSARSPLIKKALAEQLPGIPIAGGDDFGSVTAGLARWAEVVFR | 4.24 ± 0.21 h | 3.42 ± 0.99 h | 3.061 ± 0.019 h | 2.69 ± 0.13 h | 2.8 ± 0.11 h | 5.13 ± 0.5 h | 9.46 ± 2.2 h | 3.1 h | 3.87 h | 4.93 ± 0.058 h | 7.96 ± 0.29 h | 3.46 ± 0.21 h
6 | MYERYAGLIFDMDGTILDTEPTHRKAWREVLGHYGLQYDIQAMIALNGSPTWRIAQAIIELNQADLDPHALAREKTEAVRSMLLDSVEPLPLVDVVKSWHGRRPMAVGTGSESAIAEALLAHLGLRHYFDAVVAADHVKHHKPAPDTFLLCAQRMGVQPTQCVVFEDADFGIQAARAAGMDAVDVRLL | 5.33 ± 0.13 h |  | 4.41 h | 1.29 h | 2.62 ± 0.62 h | 4.33 ± 0.098 h | 6.18 h |  |  | 2.46 ± 0.33 h | 7.98 ± 0.48 h | 
7 | MTLETAFMLPVQDAQHSFRRLLKAMSEPGVIVALHQLKRGWQPLNIATTSVLLTLADNDTPVWLSTPLNNDIVNQSLRFHTNAPLVSQPEQATFAVTDEAISSEQLNALSTGTAVAPEAGATLILQVASLSGGRMLRLTGAGIAEERMIAPQLPECILHELTERPHPFPLGIDLILTCGERLLAIPRTTHVEVC |  |  |  |  |  |  |  |  |  | 1.74 ± 0.51 h | 3.12 ± 1.3 h | 
8 | MPSIRLADLAQQLDAELHGDGDIVITGVASMQSAQTGHITFMVNPKYREHLGLCQASAVVMTQDDLPFAKSAALVVKNPYLTYARMAQILDTTPQPAQNIAPSAVIDATAKLGNNVSIGANAVIESGVELGDNVIIGAGCFVGKNSKIGAGSRLWANVTIYHEIQIGQNCLIQSGTVVGADGFGYANDRGNWVKIPQIGRVIIGDRVEIGACTTIDRGALDDTIIGNGVIIDNQCQIAHNVVIGDNTAVAGGVIMAGSLKIGRYCMIGGASVINGHMEICDKVTVTGMGMVMRPITEPGVYSSGIPLQPNKVWRKTAALVMNIDDMSKRLKSLERKVNQQD | 6.07 ± 0.77 h | 5.56 ± 0.47 h | 5.67 ± 0.27 h | 5.17 ± 0.14 h | 2.94 ± 0.27 h | 5.58 ± 0.18 h | 12.2 ± 1.4 h | 5.06 ± 0.12 h | 9.29 ± 0.54 h | 5.9 ± 0.48 h | 12.7 ± 0.47 h | 6.31 ± 1.8 h
